These results are taken from US20160347847A1 (AGENUS, published 2016).

Where a chain is given by its changes, count along the chain named.

In one assay the target is T1, R62A.
T1 construct: also called human OX40 alanine mutant R62A on 1624-5 cells
T1 receptor chain: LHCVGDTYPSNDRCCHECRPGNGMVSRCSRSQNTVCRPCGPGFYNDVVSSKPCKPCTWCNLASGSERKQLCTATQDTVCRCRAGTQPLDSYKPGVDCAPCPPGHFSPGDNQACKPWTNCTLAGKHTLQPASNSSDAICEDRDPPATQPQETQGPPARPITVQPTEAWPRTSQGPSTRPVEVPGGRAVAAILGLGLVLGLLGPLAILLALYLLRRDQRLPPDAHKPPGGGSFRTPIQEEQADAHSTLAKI
Nature of the assay: flow cytometry on 1624-5 cells expressing the human OX40 alanine mutant; pab1928 at 1.1 and 0.4 µg/ml. The protocol:
(§1) This anti-OX40 antibody non-reactive cell population was subjected to a final, single-cell sorting step. […] The polyclonal anti-OX40 antibody (AF3388, R&D systems) conjugated with APC was diluted at 1:2000. Fc receptor block (1:200; BD Cat no. 553142) was added, and the samples were incubated for 20 minutes at 4° C. […] The cells were then washed and acquired using a flow cytometer (BD Biosciences).

For a further assay, the target named is T2, N60A.
T2 construct: also called human OX40 alanine mutant N60A on 1624-5 cells
T2 receptor chain: T1 receptor chain with N60A, A62R
The description is as above. The protocol:
as §1

The next assay deals with T3, P93A.
T3 construct: also called human OX40 alanine mutant P93A on 1624-5 cells
T3 receptor chain: T1 receptor chain with A62R, P93A
The description is as above. The protocol: as §1

The target in the next assay is T4, L88A.
T4 construct: also called human OX40 alanine mutant L88A on 1624-5 cells
T4 receptor chain: T1 receptor chain with A62R, L88A
The assay is described as above. The protocol: as §1

The target of the next assay is T5, P115A.
T5 construct: also called human OX40 alanine mutant P115A on 1624-5 cells
T5 receptor chain: T1 receptor chain with A62R, P115A
The description is as above. Here is the method:
as §1

In another assay the target is T6, P99A.
T6 construct: also called human OX40 alanine mutant P99A on 1624-5 cells
T6 receptor chain: T1 receptor chain with A62R, P99A
The description is as above. Here is the method: as §1

A further assay deals with T7, R80A.
T7 construct: also called human OX40 alanine mutant R80A on 1624-5 cells
T7 receptor chain: T1 receptor chain with A62R, R80A
The description is as above. The protocol: as §1

Another assay has as its target T8, W58A.
T8 construct: also called human OX40 alanine mutant W58A on 1624-5 cells
T8 receptor chain: T1 receptor chain with W58A, A62R
The assay is described as above. Here is the method:
as §1

Assay [1] has as its target T9, FcγRIIA with the high affinity 131 H/H polymorphism on Jurkat NFAT-luciferase reporter cells (UniProt P12318 34-317, limits assumed).
T9 sequence (looked up): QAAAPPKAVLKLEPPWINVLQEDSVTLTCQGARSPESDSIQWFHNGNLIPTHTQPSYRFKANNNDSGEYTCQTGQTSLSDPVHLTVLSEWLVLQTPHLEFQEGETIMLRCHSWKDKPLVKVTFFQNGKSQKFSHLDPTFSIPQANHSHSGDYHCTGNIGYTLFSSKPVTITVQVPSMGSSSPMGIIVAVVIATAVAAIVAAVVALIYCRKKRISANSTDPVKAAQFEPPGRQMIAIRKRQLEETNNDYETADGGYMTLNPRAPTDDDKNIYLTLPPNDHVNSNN
Nature of the assay: cell-based or functional assay.

B1: pab1928 (antibody, human IgG1, V domains shown)
VH: QVQLVQSGSELKKPGASVKVSCKASGYTFTDYSMHWVRQAPGQGLKWMGWINTETGEPTYADDFKGRFVFSLDTSVSTAYLQISSLKAEDTAVYYCANPYYDYVSYYAMDYWGQGTTVTVSS
VL: DIQMTQSPSSLSASVGDRVTITCKASQDVSTAVAWYQQKPGKAPKLLIYSASYLYTGVPSRFSGSGSGTDFTFTISSLQPEDIATYYCQQHYSTPRTFGQGTKLEIKR
notes: also called made from the variable regions of Hu106-122 (US 2013/0280275)
For B1, the binding result in the assay with R62A, with N60A, in the assay with P93A, in the assay with L88A, with P115A and in the assay with P99A was “binds” throughout. The results for the binding result with R80A and in the assay with W58A were “binds” and “no binding (tested: 1.1 µg/ml)”, respectively.

B2: pab2193-1 (antibody, human IgG2, kappa)
heavy: EVQLVESGGGLVQPGGSLKLSCAASGFTFSGSAMHWVRQASGKGLEWVGRIRSKANSYATAYAASVKGRFTISRDDSKNTAYLQMNSLKTEDTAVYYCTSGIYDSSGYDYWGQGTLVTVSSASTKGPSVFPLAPCSRSTSESTAALGCLVKDYFPEPVTVSWNSGALTSGVHTFPAVLQSSGLYSLSSVVTVPSSNFGTQTYTCNVDHKPSNTKVDKTVERKCCVECPPCPAPPVAGPSVFLFPPKPKDTLMISRTPEVTCVVVDVSHEDPEVQFNWYVDGVEVHNAKTKPREEQFNSTFRVVSVLTVVHQDWLNGKEYKCKVSNKGLPAPIEKTISKTKGQPREPQVYTLPPSREEMTKNQVSLTCLVKGFYPSDIAVEWESNGQPENNYKTTPPMLDSDGSFFLYSKLTVDKSRWQQGNVFSCSVMHEALHNHYTQKSLSLSPG
light: not shown
In the case of B2, the “EC50 (read off the curve)” value in assay [1] is around 1 nM.
